The text below walks through data of the supplement of paper PMC9170038.

The data set relates to MS2 coat protein. Briefly: apparent KD of MS2 coat protein; designed switch direction (-1 OFF switch, 1 ON switch): 1; higher = weaker reporter binding. An outline of the steps:
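Each step of the titration lasted 0.8–1.5 h at the lowest concentration and 10–20 min at the highest. The protein, SNAP-549-labelled MS2 coat protein, went from 0.7 or 1.5 nM doubling to 3 µM over RNA switches transcribed on Illumina chips by stalled E. coli RNA polymerase. Normalised cluster fluorescence was curve-fitted, and the per-design median over clusters is given as apparent KD.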

Setting [1] is: Eterna round: R95, input ligand: FMN 200 uM.
[2] abbreviates: Eterna round: R95, input ligand: microRNA oligo, concentration not stated.
Where [3] appears, read: Eterna round: R95, input ligand: none.
The mark [4] stands for this setting: input ligand: microRNA oligo, concentration not stated.

Turning to “GACAGGCAAGCUUUUUUCUCGUAGUGUAAACAUGAGGAUCACCCAUGUGCUCGCCCUAGAUCUUUGGAUCGCAGAAA [Ceedes] (puzzle: Sensor for hsa-mir-208a)”, the “apparent KD of MS2 coat protein” value runs as follows: under setting [1], 39.5 nM; under setting [2], 22.6 nM; under setting [3], 50.1 nM.

For “GACAGGCAAGCUUUUUUCUCGUAGUGUAGACAUGAGGAUCACCCAUGUGCUCGCCCUGGAUCUUUGGAUCGCAGAAA [Laaxeso] (puzzle: Sensor for hsa-mir-208a)”, the “apparent KD of MS2 coat protein” value under setting [1] turned out to be 17.7 nM, the “apparent KD of MS2 coat protein” value under setting [2] was found to be 14.4 nM and the “apparent KD of MS2 coat protein” value under setting [3] came to 16.7 nM.

In the case of “GAGAGAGGAUGAGGAUAUGCAGUAAUAAUGAUAGCAGAAGGCAUAGACAUGAGGAUCACCCAUGUGGGAAUAAUCCAGAGAGAG [Parity 1 - Jieux - Same State NG 1] (Eterna round: R96, puzzle: Same State NG 1)”, the “apparent KD of MS2 coat protein” value under setting [4] worked out at 132 nM.

On to “GAGAGAGGGUGAGGAUAUAGAGUAAUAAUGAUACUAGAAGGCACAGACAUGAGGAUCACCCAUGUGGGAAUAAUCCAGAGAGAG [Parity 5 - Jieux - Same State NG 1] (Eterna round: R96, puzzle: Same State NG 1)”, for which the “apparent KD of MS2 coat protein” value by setting is: (input ligand: FMN 200 uM) 300 nM; under setting [4], 259 nM; (input ligand: none) 401 nM.

On to “GAGAGAUGAUUAGGAUAUCCGGUGAUAAUGAUAGGAGAAGGAAUUGACAUGAGGAUCACCCAUGUGGGAAUAAUCCAGAGAGAG [Parity 23 - Jieux - Same State NG 1] (Eterna round: R96, puzzle: Same State NG 1)”, for which the “apparent KD of MS2 coat protein” value was 128 nM (input ligand: FMN 200 uM), 54.4 nM under setting [4] and 107 nM (input ligand: none).

Take “GAGAGAUGAUUAGGAUAUUCGGUGAUAAUGAUAGAAGAAGGAAUUGACAUGAGGAUCACCCAUGUGGGAAUAAUCCAGAGAGAG [Parity 21 - Jieux - Same State NG 1] (Eterna round: R96, puzzle: Same State NG 1)”: the “apparent KD of MS2 coat protein” value reads like this: (input ligand: FMN 200 uM) 148 nM; under setting [4], 77.5 nM; (input ligand: none) 161 nM.

Turning to “GAGCCAGUCCGAGGAUAUUCAUAUUAACACAUGAGGAUCACCCAUGUAGGCUCAGAAGAGCCUUGGGAGAAGGCGGACUGGCUC [SS-NG2-LRO14] (Eterna round: R96, puzzle: Same State NG 2)”, the “apparent KD of MS2 coat protein” value reads like this: (input ligand: FMN 200 uM) 35.2 nM; under setting [4], 227 nM; (input ligand: none) 311 nM.

Regarding “GAGCCAGUCCGAGGAUAUUCAUAUUAACACAUGAGGAUCACCCAUGUGGGCUCAGAAGAGCCCUGGGAGAAGGCGGACUGGCUC [SS-NG2-LRO16] (Eterna round: R96, puzzle: Same State NG 2)”, the “apparent KD of MS2 coat protein” value amounted to 16.5 nM (input ligand: FMN 200 uM), 232 nM under setting [4] and 297 nM (input ligand: none).

In the case of “GAGCCAGUCCGAGGAUAUUCAUUAAAUUAAAUACAUGAGGAUCACCCAUGUAGGCGAGAGCCUUGGGAGAAGGCGGACUGGCUC [Xeonanisa>>4] (Eterna round: R96, puzzle: Same State NG 2)”, the “apparent KD of MS2 coat protein” value reads like this: (input ligand: FMN 200 uM) 15.5 nM; under setting [4], 53.8 nM; (input ligand: none) 97.6 nM.

For the sequence “GAGCCAGUCCGAGGAUAUUCGUAGUAACACAUGAGGAUCACCCAUGUGGGCUCAGAAGAGCCCUUGGAGAAGGCGGGCUGGCUC [SS-NG2-LRO19] (Eterna round: R96, puzzle: Same State NG 2)”, the “apparent KD of MS2 coat protein” value worked out at 7.41 nM (input ligand: FMN 200 uM), 9.15 nM under setting [4] and 12.4 nM (input ligand: none).

Turning to “GAGGAUGAUUUACAGGAUAUAUAGCAGAUGACAUGAGGAUCACCCAUGUAAGAGAAAGGAGGGAGAUAGAAGGGUAUGGGAUGUG [JR_SS2_Sub039] (puzzle: Same State 2)”, the “apparent KD of MS2 coat protein” value is, setting by setting: under setting [1], 29.9 nM; under setting [2], 21.5 nM; under setting [3], 22.3 nM.

In the case of “GAGGGACAGACCAACAUGAGGAUCACCCAUGUCCUCGCAGGUCAGGAUAUUAUGAGGAUCACCCGUGAGAAGGGACGGUGAAUU (Eterna round: R96, puzzle: Same State NG 3)”, the “apparent KD of MS2 coat protein” value by setting is: (input ligand: FMN 200 uM) 709 nM; under setting [4], 390 nM; (input ligand: none) 804 nM.

Consider “GAGGGACAGACCAACAUGAGGAUCACCCAUGUCCUCGCAGGUCAGGAUAUUAUUAGGAUCACCAGUGAGAAGGGACGGUGAACC (Eterna round: R96, puzzle: Same State NG 3)”, for which the “apparent KD of MS2 coat protein” value is 755 nM (input ligand: FMN 200 uM), 398 nM under setting [4] and 564 nM (input ligand: none).

Turning to “GAGUAGUACGGAGGAUAUGGGCAGAACAAGACACCAGAAGGCCGACAUGAGGAUGCUGGACAUGAGGAUCACCCAUGUACCUGA [Same State 1 S3] (Eterna round: R96, puzzle: Same State NG 1)”, the “apparent KD of MS2 coat protein” value is, setting by setting: (input ligand: FMN 200 uM) 22.8 nM; under setting [4], 92.6 nM; (input ligand: none) 85.4 nM.

Turning to “GAGUAGUUGAAAGGAUAUCGAUUGUUAUAGAAUCGAGAAGGUUCUAACAUGAGGAUCACCCAUGUAGGACUAUUCCUGUGUAUC [Parity 77 - Jieux - Same State NG 1] (Eterna round: R96, puzzle: Same State NG 1)”, the “apparent KD of MS2 coat protein” value under setting [4] turned out to be 9.75 nM.

Consider “GAGUGGUGGAGAGGAUAUGCAUUGUUAUUCACUGUAGAAGGUUCUAACAUGAGGAUCACCCAUGUAGGACUAUUCCUGUGUUUU [Parity 58 - Jieux - Same State NG 1] (Eterna round: R96, puzzle: Same State NG 1)”, for which the “apparent KD of MS2 coat protein” value under setting [4] was found to be 9.4 nM.

With “GAUUAACAUGAGGAUCACCCAUGUCGUUAUAUGGGAGGAUAUACGUGGACCGUAGUCCGCGUAGAAGGCCUAAUUG [Mat - Same State 1 - Mod of JL - D23] (Eterna round: R96, puzzle: Same State 1)”, the “apparent KD of MS2 coat protein” value reads like this: (input ligand: FMN 200 uM) 67.3 nM; under setting [4], 115 nM; (input ligand: none) 262 nM.

Consider “GAUUAACAUGAGGAUCACCCAUGUCGUUAUAUGGGAGGAUAUACGUGGACCGUAGUCCGCGUAGAAGGCCUAAUUG [Mat - Same State 1 - Mod of JL - D23] (puzzle: Same State 1)”, for which the “apparent KD of MS2 coat protein” value under setting [2] was 188 nM.

As for “GCAACAGGGUGAGGAUAUCUAUGGACCGACCAUAGAGAAGGCACUGGAAACACAUGAGGAUCACCCAUGUGCCAAAGAACAGUA [Eternabot solution 9] (Eterna round: R96, puzzle: Same State NG 1)”, the “apparent KD of MS2 coat protein” value was determined as 17.5 nM (input ligand: FMN 200 uM), 22.4 nM under setting [4] and 28.4 nM (input ligand: none).

As to “GCAGAACAUGAGGAUCACCCAUGUCUCUAAUAUUGAGGAUAUGGACACGGUAUAUCCGAACCAGAAGGCGAACUGC [SS1 Teenbexe 17] (puzzle: Same State 1)”, the “apparent KD of MS2 coat protein” value by setting is: under setting [1], 27.5 nM; under setting [2], 34 nM; under setting [3], 41.2 nM.

Regarding “GCAGGACAUGAGGAUCACCCAUGUUCAAAAUAUAGAGGAUAUGGAUACGGUAUAUCCGAACCAGAAGGCUACCUGC [SS1 Teenbexe 23] (puzzle: Same State 1)”, under setting [2], the “apparent KD of MS2 coat protein” value is 13.7 nM.

Consider “GCAGUACUAGCAGAGGAUAUGUCGAUAACGACAUGAGGAUCACCCAUGUGUACGGAAGUACUCAGACAGAAGGCUGAGUACUGCU [Same State 2 - Hyphema v.2] (puzzle: Same State 2)”, for which the “apparent KD of MS2 coat protein” value was determined as 15.2 nM under setting [1], 30.2 nM under setting [2] and 41.8 nM under setting [3].

As for “GCAUCACAUGAGGAUCACCCAUGUCUUCGGAGCGGAGGAUAUGGUCACUGUAAACAGUGGCCAGAAGGCUGGAUGC [SS1 - Son of Teenbexe v3] (puzzle: Same State 1)”, the “apparent KD of MS2 coat protein” value under setting [2] worked out at 26 nM.

Turning to “GCCAACGCAUGAGGAUAUGGCACCUUAUUGGUGCCAGAAGGCAUGUCUAUUGACAUGAGGAUCACCCAUGUAUUAUAGUUGGCA [Fiskers NG1ss - 15] (Eterna round: R96, puzzle: Same State NG 1)”, the “apparent KD of MS2 coat protein” value worked out at 114 nM (input ligand: FMN 200 uM), 369 nM under setting [4] and 882 nM (input ligand: none).

With “GCCGCGUUUCGCGCCUACAUGAGGAUCACCCAUGUUUGUAGGCAGGAUAUCGCUUGCUUUGCGGGCGAGAAGGGCUGUUGUGGC [salish99_SSNG3_R04_018] (Eterna round: R96, puzzle: Same State NG 3)”, the “apparent KD of MS2 coat protein” value was 36.8 nM (input ligand: FMN 200 uM), 56.8 nM under setting [4] and 51.6 nM (input ligand: none).

Turning to “GCCGGCUGGUGAGGAUAUGGCGCCUUGUUGGUGCCAGAAGGCAUGUCUAUUGACAUGAGGAUCACCCAUGUGUUGUCGUUGGCG [salish99_SSNG1_r04_612] (Eterna round: R96, puzzle: Same State NG 1)”, the “apparent KD of MS2 coat protein” value stood at 536 nM (input ligand: FMN 200 uM), 108 nM under setting [4] and 183 nM (input ligand: none).

For “GCCGUAUAAACAUGAGGAUCACCCAUGUGCGCGAGAGCGAAUGAGGAUAUCGAUGGGUUUCCCGUCGAGAAGGCGUGGGUCGGC [JL SSNG3 3.96] (Eterna round: R96, puzzle: Same State NG 3)”, the “apparent KD of MS2 coat protein” value reads like this: (input ligand: FMN 200 uM) 37.7 nM; under setting [4], 76.4 nM; (input ligand: none) 96.3 nM.

For “GCGAAGAGGUAAGGAUAUUCAUGGCGGAGACAUGAGGAUCACCCAUGUAGGAGACGAAAUCUAAGGGAGAAGGUACCAGGACGC [AK SSNG2-V2-14] (Eterna round: R96, puzzle: Same State NG 2)”, the “apparent KD of MS2 coat protein” value was found to be 112 nM (input ligand: FMN 200 uM), 147 nM under setting [4] and 321 nM (input ligand: none).
